For assay [1], the target named is T1, Human IL-2Rβ ECD (human, UniProt P14784 27-240, biotinylated (site not stated)).
T1 construct: extracellular domain; Biotinylated and held on a streptavidin chip for SPR; also called biotinylated human IL-2Rβ ECD
T1 sequence (looked up): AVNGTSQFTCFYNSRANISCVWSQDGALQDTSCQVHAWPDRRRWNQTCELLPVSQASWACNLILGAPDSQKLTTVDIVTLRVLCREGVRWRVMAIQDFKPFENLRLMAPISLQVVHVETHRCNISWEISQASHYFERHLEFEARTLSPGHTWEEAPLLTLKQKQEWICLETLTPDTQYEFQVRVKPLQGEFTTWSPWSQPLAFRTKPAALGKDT
The experiment in a line: SPR, steady-state binding affinity (drawn table). How it is done:
(§1) FIGS. 2A-2H show data on SPR validation of IL-2Rβ- and γc-VHHs and agonist screening in YT-1 cells. (A) Biotinylated human IL-2Rβ ECD was immobilized on a streptavidin (SA) sensor chip, and varying concentrations of IL-2Rβ VHH were applied to determine binding parameters using SPR. Sensorgrams are shown on the left, and steady state binding is plotted on the right. Binding affinities (KD) were determined by fitting to steady state response values. (B) Biotinylated human γC ECD was immobilized on a SA chip, and varying concentrations of γc VHH were flowed over the chip to determine binding. […] (C) Steady-state binding affinities between VHH/scFv and IL-2R, as determined by SPR. Values for scFv affinities are derived from patent US20160367664A1 (Wang et al., 2016). (D) Table of pSTAT5 Eₘₐₓ values for the indicated VHH pairings. (E) Tuning IL-2 activity via generation of acid-base VHH zipper pairings. (F) Tuning IL-2 activity via generation of 2:1 β:γc or γc:β stoichiometries. VHH binding modules are linked together in a tripartite (β-γc-β or γc-β-γc) manner. Graph axes are represented as in (E). (G) Dose-response relationship of pSTAT5 geometric mean flurorescence intensities (gMFI) of selected agonists. (H) Corresponding histograms showing STAT5 activity in YT-1 cells treated with human IL-2 vs. IL-2 surrogate agonists at saturating concentration.

Assay [2] concerns the target T1, Human IL-2Rβ ECD. The experiment in a line: SPR; biotinylated human IL-2Rβ ECD on streptavidin chip, VHH as analyte; KD from fit to steady-state responses [Cont.]. The procedure:
as §1
On the technique in general: In SPR one partner is held on a chip, and binding of the other changes the refractive index at the surface.

Another assay concerns the target T2, human IL-10Rβ ECD (human, UniProt Q08334 20-220).
T2 construct: extracellular domain; Immobilized for SPR under the same conditions as for the IL-2 specific VHHs
T2 sequence (looked up): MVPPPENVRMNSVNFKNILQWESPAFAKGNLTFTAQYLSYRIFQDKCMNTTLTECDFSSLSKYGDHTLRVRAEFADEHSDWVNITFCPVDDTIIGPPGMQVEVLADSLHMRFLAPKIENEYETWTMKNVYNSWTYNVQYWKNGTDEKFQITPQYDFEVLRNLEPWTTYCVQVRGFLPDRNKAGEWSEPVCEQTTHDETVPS
The experiment in a line: SPR, kinetic fit, immobilized human IL-10Rβ ECD. The procedure:
(A) SPR sensorgrams displaying dose-dependent binding of IL-10Rβ VHHs to immobilized human IL-10Rβ ECD. SPR experiments were performed using the same conditions as for IL-2 specific VHHs. Binding constants were determined from kinetic fitting and summarized in (B).

The target of another assay is T3, human IFNAR2 ECD (human, UniProt P48551 27-243).
T3 construct: extracellular domain; Immobilized for SPR under the same conditions as for the IL-2 specific VHHs
T3 sequence (looked up): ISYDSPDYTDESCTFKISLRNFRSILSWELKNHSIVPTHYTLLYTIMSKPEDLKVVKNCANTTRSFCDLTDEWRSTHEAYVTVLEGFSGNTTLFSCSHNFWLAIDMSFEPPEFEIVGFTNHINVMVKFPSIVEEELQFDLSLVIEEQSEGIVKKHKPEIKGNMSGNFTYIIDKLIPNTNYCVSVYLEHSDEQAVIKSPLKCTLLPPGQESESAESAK
The experiment in a line: SPR; human IFNAR2 ECD immobilized, VHH as analyte; binding constants from kinetic fits. How it is done:
FIGS. 8A-8D depict signaling kinetics and gene expression driven by Type I Interferon surrogate ligands. (A) SPR sensorgrams displaying dose-dependent binding of IFNAR2 VHHs to immobilized human IFNAR2 ECD. SPR experiments were performed using the same conditions as for IL-2 specific VHHs. Binding constants were determined from kinetic fitting and summarized in (B). (C) qRT-PCR analysis of mRNA level of indicated genes in human primary bronchial/tracheal epithelial cells treated with 10 nM surrogate ligands or IFNω for 8 hr. (D) qRT-PCR analysis of mRNA level of indicated genes in PBMCs treated with 10 nM surrogate ligands or IFNω for 8 hr.

For assay [3], the target named is IL-2Rβ/γc receptor heterodimer on cells (human) (UniProt P14784). Nature of the assay: cell-based or functional assay.

One may read the Kd as a measure of binding affinity in units of concentration. The low end stands for tighter binding, the high end for weaker binding.

Sequence of IL-2Rβ/γc receptor heterodimer on cells (human) (P31785 23-369, one chain of several): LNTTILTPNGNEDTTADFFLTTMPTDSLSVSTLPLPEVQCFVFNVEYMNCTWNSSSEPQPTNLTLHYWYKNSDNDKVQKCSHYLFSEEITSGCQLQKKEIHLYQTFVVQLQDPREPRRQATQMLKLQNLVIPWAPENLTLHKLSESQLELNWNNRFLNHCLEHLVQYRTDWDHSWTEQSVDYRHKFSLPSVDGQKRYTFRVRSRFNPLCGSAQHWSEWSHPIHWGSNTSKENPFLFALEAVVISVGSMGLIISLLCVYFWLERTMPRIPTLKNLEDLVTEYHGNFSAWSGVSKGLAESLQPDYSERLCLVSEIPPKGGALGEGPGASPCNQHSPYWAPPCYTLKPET

B1: 2Rβ-VHH1 (VHH)
VHH: QVQLQESGGGSVQAGGSLRLSCVTSGYTYSSANMAWFRQAPGKEREGVAIITPSGRATTYADSVKGRFTISRDNAANTLYLQMNSLKPEDTAMYYCAADTPPYSGLWYAERTYNYWGQGTQVTVSS
notes: also called IL-2Rβ-specific VHH clone 1
As for B1, the Kd with Human IL-2Rβ ECD [1] came to 11 nM; with Human IL-2Rβ ECD [2] it was 10.9 nM.

B2: 10Rβ-VHH3 (VHH)
VHH: QVQLQESGGGSVQVGGSLRLSCAASGYTYSNYCMGWFRQAPGKEREGVATIDGDGSTRYADSVKGRFTISKDNAKNTLYLQMHSLKPEDTAMYYCAADFALCDPTVVAHTDFGYWGQGTQVTVSS
notes: member of the group m13; also called VHH3 (IL-10Rβ VHH)
For the molecule B2, in the assay with human IL-10Rβ ECD, the Kd was found to be 2.5 nM.

B3: 2Rβ-VHH4 (VHH)
VHH: QVQLQESGGGSVQAGGSLRLSCAASGSTSCSSVMRWYRQAPGKEREFVSSINSDRRTVYADSVKGRFTISQDNAKSTLYLQMNSLKAEDTATYYCQRELYGDSWCQGNYWGQGTQVTVSS
Consider B3, for which the Kd with Human IL-2Rβ ECD [1] and in the assay with Human IL-2Rβ ECD [2] was 123 nM each time.

B4: IFNAR2-VHH3 (VHH)
VHH: QVQLQESGGGLVQPGGSLRLSCAASEFTFSEYSMKWVRQPPGKGLEWVSTISPSGGTTRYAESVKGRFTISRDNAKNTLYLQLNSLKTEDTAMYYCSVADWSVTQRRGQGTQVTVSS
notes: Member of the group m12 (IFNAR2 VHHs); also called VHH3 (IFNAR2 VHH)
On to B4, for which, in the assay with human IFNAR2 ECD, the Kd was 0.21 nM.

B5: 10Rβ-VHH4 (VHH)
VHH: QVQLQESGGGSVQAGGSLRLSCAASGYTYSSYCMGWFRQASGKEREGVATIDSDGSTRYADSVKGRFTISKDNAKNTLYLQMNSLKPEDTAMYYCAADLADCAPSIYSDYDVAHWGQGTQVTVSS
notes: member of the group m13; also called VHH4 (IL-10Rβ VHH)
For the molecule B5, the Kd with human IL-10Rβ ECD was 2.2 nM.

B6: 10Rβ-VHH5 (VHH)
VHH: QVQLQESGGGSVQAGGSLRLSCAASGYTYSSYCMGWFRQAPGKEREGVAAIDSDGSTSYADSVKGRFTISKDNAKNTLYLQMNSLKPEDTAMYYCAAEPWCTSQGRGRESAEFGYWGQGTQVTVSS
notes: member of the group m13; also called VHH5 (IL-10Rβ VHH)
Take B6: the Kd with human IL-10Rβ ECD was determined as 1.7 nM.

B7: 10Rβ-VHH2 (VHH)
VHH: QVQLQESGGGSVQTGGSLRLSCAASQVNMNSVGWFRQAPGKAREGVATISPSGGATYYTDSVKGRFTISRDNAKNTVYLQMNSLNAEDTAMYYCAADGGRDWWLLRPQTFSYWGQGTQVTVSS
notes: member of the group m13; also called VHH2 (IL-10Rβ VHH)
In the case of B7, in the assay with human IL-10Rβ ECD, binding was put at a Kd of 2.2 nM.

B8: IFNAR2-VHH1 (VHH)
VHH: QVQLQESGGGSVQPGGSLRLSCAASGFTFSNYIMSWVRQAPGKGLEWVSAISGGGNTYYTDSVKGRFTISRDNAKNTLYLQLNSLKTEDTAMYYCAQNWWVAGRSPNPPGQGTQVTVSS
notes: Member of the group m12 (IFNAR2 VHHs); also called VHH1 (IFNAR2 VHH)
With B8, the Kd with human IFNAR2 ECD was 0.31 nM.

B9: IFNAR2-VHH2 (VHH)
VHH: QVQLQESGGGLVQPGGSLRLSCAASGFTFSDYIMTWVRQAPGKGLEWVSSINNGGRSTYYADSVKGRFTISRDNAKNTLYLQLNSLKIEDTAMYYCARDVTCWGARTGCRVSGGTQVTVSS
notes: Member of the group m12 (IFNAR2 VHHs); also called VHH2 (IFNAR2 VHH)
In turn, B9 came in with a Kd in the assay with human IFNAR2 ECD of 0.78 nM.

B10: MY193-R (bispecific antibody, not shown: small tags and cut ends)
chain: QVQLQESGPGLVKPSETLSLTCTVSGGSISSSSYYWGWIRQPPGKGLEWIGSIYYSGSTYYNPSLKSRVTISVDTSKNQFSLKLSSVTAADTAVYYCAGDILTGYALDYWGQGTLVTVSSGGGGSGGGGSGGGGSSYELTQPPSMSVSPGQTARITCSGDALPKQFAFWYQQKPGQAPVLVIYKDTERPSGIPERFSGSSSGTTVTLTITGVQAEDEADYYCQSPDSSGTVEVFGGGTKLTVLGGGGTSASQVQLQESGGGSVQAGGSLRLSCTASGFTFDDEDMGWYRQAPGNECELVSSIGSLGRRYYADSVKDRFAISQDNAKNTVYLQMNSLKPEDTAVYYCAATKGGSWLDSILASCQGAFGYWGQGTQVTVSS
With B10, in assay [3], the pSTAT1/3 activity in NK cells, relative to hIL-2 stood at 3%; the pSTAT1 or pSTAT3 activity in CD8+ T cells, relative to hIL-2 was found to be 25%; the pSTAT5 activity in CD8+ T cells, relative to hIL-2 stood at 90%; the pSTAT5 activity in NK cells, relative to hIL-2 turned out to be 45%.

B11: 2Rβ-VHH6 (VHH)
VHH: QVQLQESGGGSVQAGGSLRLSCAASSYTISSVCMGWFRQAPGKEREGVAGIAPDGSTGYGDSVKGRFTISKDNAKNTLYLQMNSLKPEDTAMYYCAAASPGRCFLPRTALEPALYYNWGQGTQVTVSS
notes: also called IL-2Rβ-VHH6
Turning to B11, the Kd with Human IL-2Rβ ECD [1] and with Human IL-2Rβ ECD [2] was 25 nM in each case.

B12: IFNAR2-VHH8 (VHH)
VHH: QVQLQESGGGSVQAGGSLRLSCAASGFYGTYSMGWFRQAPGKEREGVAHIESDGSTRYADSMKGRFTVSKDNAKKILYLQMNSLKPEDTAVYYCAADPRPYFRTWYERARYGGQGTQVTVSS
notes: Member of the group m12 (IFNAR2 VHHs); also called VHH8 (IFNAR2 VHH)
Turning to B12, the Kd in the assay with human IFNAR2 ECD worked out at 0.54 nM.

B13: 2Rβ-VHH3 (VHH)
VHH: QVQLQESGGGSVQAGGSLRLSCTASGFTFDDEDMGWYRQAPGNECELVSSIGSLGRRYYADSVKDRFAISQDNAKNTVYLQMNSLKPEDTAVYYCAATKGGSWLDSILASCQGAFGYWGQGTQVTVSS
As for B13, the Kd in the assay with Human IL-2Rβ ECD [1] worked out at 20 nM; in the assay with Human IL-2Rβ ECD [2], 20.2 nM.

B14: 10Rβ-VHH1 (VHH)
VHH: QVQLQESGGGSVQAGGSLRLSCAARYTYSTYCMGWFRQAPGKEREGVAAIDSDGSTSYADSVKGRFTISKDNAKNTLYLQMNSLKPEDTAMYYCASDADCDLGGSWSTRGQGTQVTVSS
notes: member of the group m13; also called VHH1 (IL-10Rβ VHH)
Regarding B14, binding with human IL-10Rβ ECD was characterised by a dissociation constant (Kd) of 1.6 nM.

B15: MY173-F (bispecific antibody, not shown: small tags and cut ends)
chain: QVQLQESGGGSVQAGGSLRLSCAASSYTISSVCMGWFRQAPGKEREGVAGIAPDGSTGYGDSVKGRFTISKDNAKNTLYLQMNSLKPEDTAMYYCAAASPGRCFLPRTALEPALYYNWGQGTQVTVSSSFQVQLQESGGGSVQAGGSLRLSCAASGYTYRDYYMGWFRQAPGREREGVASIYTRGSREGSTRYSSSVEGRFTITLDTAKNTLYLQMNSLKPEDTAMYYCAADDRTWLPRVQLGGPRENEYNYWGQGTQVTVSS
For the molecule B15, in assay [3], the pS6 activity in CD8+ T and NK cells, relative to IL-2 was 50%; the pSTAT5 activity in CD8+ T and NK cells, relative to IL-2 lay within 70 to 100%.

B16: IFNAR2-VHH10 (VHH)
VHH: QVQLQESGGGLVQPGGSLRLSCAASGFTFSNHIMSWVRQAPGKGLEWVSAINSGGGSTYYRDSVKGRFTISRDNAKNTLYLQLNSLKTEDTAMYYCAKDWWRYGSDKPPGQGTQVTVSS
notes: Member of the group m12 (IFNAR2 VHHs); also called VHH10 (IFNAR2 VHH)
In turn, B16 registered a Kd with human IFNAR2 ECD of 0.33 nM.

B17: IFNAR2-VHH5 (VHH)
VHH: QVQLQESGGGLVQPGGSLTLSCAASGFTFRNHIMSWVRQAPGKGLEWVSAISSGGGNTYYADSVKGRFTISRDNAKSTLYLQLNSLKTEDTAMYYCTKDWARPPYSDFLAPQAQGTQVTVSS
notes: Member of the group m12 (IFNAR2 VHHs); also called VHH5 (IFNAR2 VHH)
On to B17, for which the affinity with human IFNAR2 ECD, expressed as Kd, was 0.23 nM.

(Values after patent publication US20250129169A1 (Stanford University, published 2025).)
